The values below come from US20140341881A1 (DERMADIS, published 2014).

For test [1], the target named is human chymotrypsin (Chtr) (human, UniProt P17538 19-263). Kind of test: cell-based or functional assay.
Test [2] addresses human plasma kallikrein (PK) (human, UniProt P03952 20-638). Kind of test: cell-based or functional assay.
For test [3], the target named is urokinase plasminogen activator (uPA) (UniProt P00749 21-431, limits assumed). In words: cell-based or functional assay.
The target of test [4] is T1, human neutrophil elastase (HNE) (human, UniProt P08246 30-247, limits assumed).
T1 sequence (looked up): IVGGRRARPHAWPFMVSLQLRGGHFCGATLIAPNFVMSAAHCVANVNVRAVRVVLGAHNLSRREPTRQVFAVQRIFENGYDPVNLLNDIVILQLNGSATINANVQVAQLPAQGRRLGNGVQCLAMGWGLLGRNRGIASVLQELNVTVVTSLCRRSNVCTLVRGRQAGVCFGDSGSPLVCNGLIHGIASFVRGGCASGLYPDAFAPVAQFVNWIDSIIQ
In words: cell-based or functional assay.

The target of the next test is thrombin. In words: cell-based or functional assay.
The target in test [5] is T2, human kallikrein 14 (hK14) (human, UniProt Q9P0G3 25-251, limits assumed).
T2 sequence (looked up): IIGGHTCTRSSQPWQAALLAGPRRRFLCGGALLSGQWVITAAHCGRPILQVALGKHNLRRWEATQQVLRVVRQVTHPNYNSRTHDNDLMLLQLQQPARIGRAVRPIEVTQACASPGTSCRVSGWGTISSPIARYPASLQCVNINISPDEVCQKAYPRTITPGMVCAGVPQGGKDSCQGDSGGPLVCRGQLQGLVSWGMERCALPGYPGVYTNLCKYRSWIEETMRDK
In words: cell-based or functional assay.

The target in test [6] is T2, human kallikrein 14 (hK14). Kind of test: residual hK14 activity against [I0]/[E0]. As for the experimental part: SI values of rAAT, rACT, and their variants were determined with hK14 incubating the protease with varying concentrations of inhibitor. After an incubation of 4 hours at 37° C. in reaction buffer (50 mM Tris, pH 7.5, 150 mM NaCl, 0.05% Triton X-100, 0.01% BSA), the residual activity was detected by the addition of fluorescent substrate (Boc-Val-Pro-Arg-AMC). Fluorescence was measured with excitation at 340 nm (±15) and emission at 485 nm (±10) in black 96 well plates using a microplate fluorescence reader FLₓ800 (Bio-Tek Instruments, Inc.). The SI value corresponds to the abscissa intercept of the linear regression analysis of fractional velocity (velocity of inhibited enzyme reaction (vi)/velocity of uninhibited enzyme reaction (v₀)) vs. the molar ratio of the inhibitor to enzyme ([I₀]/[E₀]).

Test [7] concerns the target T2, human kallikrein 14 (hK14). In words: progress curve; * [I0]/[E0] < 5 * SI. As for the experimental part:
The association rate constants for interactions of hK14, with different inhibitors were determined under pseudo-first order conditions using the progress curve method (Morrison and Walsh, 1988). Under these conditions, a fixed amount of enzyme (2 nM) was mixed with different concentrations of inhibitor (0-80 nM) and an excess of substrate (20 μM). Reactions were performed in reaction buffer (50 mM Tris pH 7.5, 150 mM NaCl, 0.05% Triton X-100, 0.01% BSA) at 37° C. for 45 min and the rate of product formation was measured using a FLₓ800 fluorescence 96-well microplate reader (Biotek, USA) Inhibition is considered to be irreversible over the course of reaction and the progression of enzyme activity is expressed as product formation (P), beginning at a rate (vz) and is inhibited over time (t) at a first-order rate (kobs), where the rate constant is only dependent on the inhibitor concentration.

Sequence of human chymotrypsin (Chtr) (P17538 19-263): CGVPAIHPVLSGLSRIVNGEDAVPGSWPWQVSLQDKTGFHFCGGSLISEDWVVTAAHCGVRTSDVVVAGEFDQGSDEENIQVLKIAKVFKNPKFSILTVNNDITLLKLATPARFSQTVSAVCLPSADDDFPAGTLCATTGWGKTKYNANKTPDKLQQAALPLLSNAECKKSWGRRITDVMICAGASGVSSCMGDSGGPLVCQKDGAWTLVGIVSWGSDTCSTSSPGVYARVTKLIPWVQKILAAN
Sequence of human plasma kallikrein (PK) (P03952 20-638 limits assumed): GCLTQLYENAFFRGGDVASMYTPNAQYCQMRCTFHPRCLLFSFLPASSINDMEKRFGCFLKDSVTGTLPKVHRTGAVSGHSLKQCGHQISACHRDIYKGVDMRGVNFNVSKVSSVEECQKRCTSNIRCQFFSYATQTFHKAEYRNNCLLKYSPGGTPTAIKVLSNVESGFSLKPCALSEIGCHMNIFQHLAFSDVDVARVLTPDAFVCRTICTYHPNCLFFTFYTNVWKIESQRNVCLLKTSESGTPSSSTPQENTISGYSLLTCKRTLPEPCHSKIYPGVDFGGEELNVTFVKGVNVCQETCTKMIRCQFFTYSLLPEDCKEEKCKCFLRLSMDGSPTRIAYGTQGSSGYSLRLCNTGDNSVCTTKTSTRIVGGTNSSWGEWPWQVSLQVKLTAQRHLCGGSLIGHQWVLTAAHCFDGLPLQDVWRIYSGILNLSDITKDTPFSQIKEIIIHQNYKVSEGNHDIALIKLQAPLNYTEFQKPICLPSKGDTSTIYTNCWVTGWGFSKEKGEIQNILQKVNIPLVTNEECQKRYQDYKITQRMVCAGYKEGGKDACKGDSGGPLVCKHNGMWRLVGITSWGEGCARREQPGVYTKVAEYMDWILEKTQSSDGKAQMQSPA

B1: AATC11 (other, human)
chain: HHHHHHEDPQGDAAQKTDTSHHDQDHPTFNKITPNLAEFAFSLYRQLAHQSNSTNIFFSPVSIATAFAMLSLGTKADTHDEILEGLNFNLTEIPEAQIHEGFQELLRTLNQPDSQLQLTTGNGLFLSEGLKLVDKFLEDVKKLYHSEAFTVNFGDTEEAKKQINDYVEKGTQGKIVDLVKELDRDTVFALVNYIFFKGKWERPFEVKDTEEEDFHVDQVTTVKVPMMKRLGMFNIQHCKKLSSWVLLMKYLGNATAIFFLPDEGKLQHLENELTHDIITKFLENEDRRSASLHLPKLSITGTYDLKSVLGQLGITKVFSNGADLSGVTEEAPLKLSKAVHKAVLTIDEKGTEAAGAMFLEAIPRQTNPEVKFNKPFVFLMIEQNTKSPLFMGKVVNPTQK
notes: mature
B1: the “% Inhibition” value in test [1] worked out at 18%; in test [2], 8%; in test [3], 0%; in test [4], 0%; with thrombin it was 100%; in test [5], 100%. In addition, the “SI (stoichiometry of inhibition)” value in test [6] was determined as 2.8.

B2: AATG1g (other, human)
chain: HHHHHHEDPQGDAAQKTDTSHHDQDHPTFNKITPNLAEFAFSLYRQLAHQSNSTNIFFSPVSIATAFAMLSLGTKADTHDEILEGLNFNLTEIPEAQIHEGFQELLRTLNQPDSQLQLTTGNGLFLSEGLKLVDKFLEDVKKLYHSEAFTVNFGDTEEAKKQINDYVEKGTQGKIVDLVKELDRDTVFALVNYIFFKGKWERPFEVKDTEEEDFHVDQVTTVKVPMMKRLGMFNIQHCKKLSSWVLLMKYLGNATAIFFLPDEGKLQHLENELTHDIITKFLENEDRRSASLHLPKLSITGTYDLKSVLGQLGITKVFSNGADLSGVTEEAPLKLSKAVHKAVLTIDEKGTEAAGAMFLEGSLRGIPPEVKFNKPFVFLMIEQNTKSPLFMGKVVNPTQK
notes: mature
For the molecule B2, the “% Inhibition” value is 17% in test [1]; 100% in test [2]; 0% in test [3]; 0% in test [4]; 0% in the test with thrombin; 100% in test [5]. Also, in test [6], the “SI (stoichiometry of inhibition)” value came out at 2.3.

B3: AATG1 (other, human)
chain: HHHHHHEDPQGDAAQKTDTSHHDQDHPTFNKITPNLAEFAFSLYRQLAHQSNSTNIFFSPVSIATAFAMLSLGTKADTHDEILEGLNFNLTEIPEAQIHEGFQELLRTLNQPDSQLQLTTGNGLFLSEGLKLVDKFLEDVKKLYHSEAFTVNFGDTEEAKKQINDYVEKGTQGKIVDLVKELDRDTVFALVNYIFFKGKWERPFEVKDTEEEDFHVDQVTTVKVPMMKRLGMFNIQHCKKLSSWVLLMKYLGNATAIFFLPDEGKLQHLENELTHDIITKFLENEDRRSASLHLPKLSITGTYDLKSVLGQLGITKVFSNGADLSGVTEEAPLKLSKAVHKAVLTIDEKGTEAAGAMFLEGSLRSIPPEVKFNKPFVFLMIEQNTKSPLFMGKVVNPTQK
notes: mature
In the case of B3, the “% Inhibition” value in test [1] amounted to 27%; in test [2] it was 100%; in test [3], 17%; in test [4], 0%; with thrombin, 51%; in test [5], 100%. In addition, the “SI (stoichiometry of inhibition)” value in test [6] stood at 3.6.

B4: AATF3 (other, human)
chain: HHHHHHEDPQGDAAQKTDTSHHDQDHPTFNKITPNLAEFAFSLYRQLAHQSNSTNIFFSPVSIATAFAMLSLGTKADTHDEILEGLNFNLTEIPEAQIHEGFQELLRTLNQPDSQLQLTTGNGLFLSEGLKLVDKFLEDVKKLYHSEAFTVNFGDTEEAKKQINDYVEKGTQGKIVDLVKELDRDTVFALVNYIFFKGKWERPFEVKDTEEEDFHVDQVTTVKVPMMKRLGMFNIQHCKKLSSWVLLMKYLGNATAIFFLPDEGKLQHLENELTHDIITKFLENEDRRSASLHLPKLSITGTYDLKSVLGQLGITKVFSNGADLSGVTEEAPLKLSKAVHKAVLTIDEKGTEAAGAMFLEAPDRHMPPEVKFNKPFVFLMIEQNTKSPLFMGKVVNPTQK
notes: mature
With B4, the “SI (stoichiometry of inhibition)” value in test [6] is 11.7.

B5: AATE5 (other, human)
chain: HHHHHHEDPQGDAAQKTDTSHHDQDHPTFNKITPNLAEFAFSLYRQLAHQSNSTNIFFSPVSIATAFAMLSLGTKADTHDEILEGLNFNLTEIPEAQIHEGFQELLRTLNQPDSQLQLTTGNGLFLSEGLKLVDKFLEDVKKLYHSEAFTVNFGDTEEAKKQINDYVEKGTQGKIVDLVKELDRDTVFALVNYIFFKGKWERPFEVKDTEEEDFHVDQVTTVKVPMMKRLGMFNIQHCKKLSSWVLLMKYLGNATAIFFLPDEGKLQHLENELTHDIITKFLENEDRRSASLHLPKLSITGTYDLKSVLGQLGITKVFSNGADLSGVTEEAPLKLSKAVHKAVLTIDEKGTEAAGAMFLEANQRSSPPEVKFNKPFVFLMIEQNTKSPLFMGKVVNPTQK
notes: mature
Consider B5, for which the “SI (stoichiometry of inhibition)” value in test [6] was 10.

B6: ACTC11 (other)
chain: MRGSHHHHHHSRHPNSPLDEENLTQENQDRGTHVDLGLASANVDFAFSLYKQLVLKAPDKNVIFSPLSISTALAFLSLGAHNTTLTEILKGLKFNLTETSEAEIHQSFQHLLRTLNQSSDELQLSMGNAMFVKEQLSLLDRFTEDAKRLYGSEAFATDFQDSAAAKKLINDYVKNGTRGKITDLIKDLDSQTMMVLVNYIFFKAKWEMPFDPQDTHQSRFYLSKKKWVMVPMMSLHHLTIPYFRDEELSCTVVELKYTGNASALFILPDQDKMEEVEAMLLPETLKRWRDSLEFREIGELYLPKFSISRDYNLNDILLQLGIEEAFTSKADLSGITGARNLAVSQVVHKAVLDVFEEGTEASAATAVKITLRQTNVETRTIVRFNRPFLMIIVPTDTQNIFFMSKVTNPKQA
notes: also called rACTC11
Consider B6, for which the “% Inhibition” value in test [1] worked out at 84%; in test [2] it was 0%; in test [3], 0%; in test [4], 0%; with thrombin it was 0%; in test [5] it was 100%. Moreover, in test [7], the on-rate (kon) is 65000 M⁻¹ s⁻¹. In addition, in test [6], the “SI (stoichiometry of inhibition)” value is 4.8.

B7: ACTG1v (other)
chain: MRGSHHHHHHSRHPNSPLDEENLTQENQDRGTHVDLGLASANVDFAFSLYKQLVLKAPDKNVIFSPLSISTALAFLSLGAHNTTLTEILKGLKFNLTETSEAEIHQSFQHLLRTLNQSSDELQLSMGNAMFVKEQLSLLDRFTEDAKRLYGSEAFATDFQDSAAAKKLINDYVKNGTRGKITDLIKDLDSQTMMVLVNYIFFKAKWEMPFDPQDTHQSRFYLSKKKWVMVPMMSLHHLTIPYFRDEELSCTVVELKYTGNASALFILPDQDKMEEVEAMLLPETLKRWRDSLEFREIGELYLPKFSISRDYNLNDILLQLGIEEAFTSKADLSGITGARNLAVSQVVHKAVLDVFEEGTEASAATAVVGSLRSALVETRTIVRFNRPFLMIIVPTDTQNIFFMSKVTNPKQA
As for B7, the kon in test [7] was determined as 22000 M⁻¹ s⁻¹. Moreover, in test [6], the “SI (stoichiometry of inhibition)” value was found to be 11.7.

B8: AATC11g (other)
chain: MRGSHHHHHHGSDDPQGDAAQKTDTSHHDQDHPTFNKITPNLAEFAFSLYRQLAHQSNSTNIFFSPVSIATAFAMLSLGTKADTHDEILEGLNFNLTEIPEAQIHEGFQELLRTLNQPDSQLQLTTGNGLFLSEGLKLVDKFLEDVKKLYHSEAFTVNFGDTEEAKKQINDYVEKGTQGKIVDLVKELDRDTVFALVNYIFFKGKWERPFEVKDTEEEDFHVDQATTVKVPMMKRLGMFNIQHCKKLSSWVLLMKYLGNATAIFFLPDEGKLQHLENELTHDIITKFLENEDRRSASLHLPKLSITGTYDLKSVLGQLGITKVFSNGADLSGVTEEAPLKLSKAVHKAVLTIDEKGTEAAGAMFLEAIGRQTNPEVKFNKPFVFLMIEQNTKSPLFMGKVVNPTQK
Consider B8, for which the kon in test [7] turned out to be 42000 M⁻¹ s⁻¹. In addition, in test [6], the “SI (stoichiometry of inhibition)” value is 9.
